Source: patent US20120058906A1 (published 2012)

Assays:
[1] = molecular target: T1, rHuman CD44/Fc Chimera, CF (R&D Systems Cat#3660-CD) (human, UniProt P16070 21-220); assay: MSD ECL multi-spot plate; Fab 32.5 nM; blank spot 473
T1 construct: Fc part of the bought chimera not given

[2] = molecular target: T2, rHuman HGF R/c-MET/Fc Chimera, CF (R&D Systems Cat#358-MT/CF) (human, UniProt P08581 25-932); assay: as above
T2 construct: also called HGF R/Fc; hepatocyte growth factor receptor; Fc part of the bought chimera not given

[3] = molecular target: T3, rHuman Notch-1/Fc Chimera, CF (R&D Systems Cat#3647-TK) (human, UniProt P46531 19-526); assay: as above
T3 construct: Fc part of the bought chimera not given

[4] = molecular target: T4, rHuman IGF-1 sR, (IGF-1 sR), CF (R&D Systems Cat#391-GR) (human, UniProt P08069 31-932); assay: as above
T4 construct: also called insulin-like growth factor-1 soluble receptor; IGF-R1

[5] = molecular target: T5, rHuman ErbB2/Fc Chimera, CF (R&D Systems Cat#1129-ER) (human, UniProt P04626 23-652); assay: as above
T5 construct: also called HER2/neu; human epidermal growth factor 2 receptor; Fc part of the bought chimera not given

[6] = molecular target: T6, rHuman EGF R/Fc Chimera, CF (R&D Systems Cat#344-ER) (human, UniProt P00533 25-645); assay: MSD ECL multi-spot plate, antigen immobilized; Fab 1.6 nM; blank spot 449
T6 construct: Purchased Fc chimera; not shown: Fc portion of the purchased chimera

[7] = molecular target: T7, rHuman CD44/Fc Chimera, CF (R&D Systems Cat#3660-CD) (human, UniProt P16070 21-220); assay: as above
T7 construct: Purchased Fc chimera; not shown: Fc portion of the purchased chimera

[8] = molecular target: T8, Recombinant Human DLL4 (R&D Systems Cat#1506-D4/CF) (human, UniProt Q9NR61 27-524); assay: as above
T8 construct: Purchased recombinant protein; also called delta-like protein 4

[9] = molecular target: T9, rHuman HGF R/c-MET/Fc Chimera, CF (R&D Systems Cat#358-MT/CF) (human, UniProt P08581 25-932); assay: as above
T9 construct: Purchased Fc chimera; also called HGF R/Fc; not shown: Fc portion of the purchased chimera

[10] = molecular target: T10, rHuman IGF-1 sR (IGF-1 sR), CF (R&D Systems Cat#391-GR) (human, UniProt P08069 31-932); assay: as above
T10 construct: Purchased soluble receptor; also called insulin-like growth factor-1 soluble receptor; IGF-R1

[11] = molecular target: T11, rHuman Notch-1/Fc Chimera, CF (R&D Systems Cat#3647-TK) (human, UniProt P46531 19-526); assay: ECL (MSD multi-spot), antigen on plate, Fab 10 nM
T11 construct: Bought Fc chimera; not shown: Fc of the bought chimera

[12] = molecular target: T12, rHuman EGF R/Fc Chimera, CF (R&D Systems Cat#344-ER) (human, UniProt P00533 25-645); assay: ECL (MSD multi-spot), antigen on plate, Fab 10 nM
T12 construct: Bought Fc chimera; also called ErbB-1; not shown: Fc of the bought chimera

[13] = molecular target: T13, rHuman IGF-1 sR (insulin-like growth factor-1 soluble receptor), CF (R&D Systems Cat#391-GR) (human, UniProt P08069 31-932); assay: ECL (MSD multi-spot), antigen on plate, Fab 10 nM
T13 construct: Bought soluble receptor; also called IGF-R1

[14] = molecular target: T14, rHuman ErbB2/Fc Chimera, CF (R&D Systems Cat#1129-ER) (human, UniProt P04626 23-652); assay: ECL (MSD multi-spot), antigen on plate, Fab 10 nM
T14 construct: Bought Fc chimera; also called HER2/neu; not shown: Fc of the bought chimera

[15] = molecular target: T15, rHuman CD44/Fc Chimera, CF (R&D Systems Cat#3660-CD) (human, UniProt P16070 21-220); assay: ECL (MSD multi-spot), antigen on plate, Fab 10 nM
T15 construct: Bought Fc chimera; not shown: Fc of the bought chimera

[16] = molecular target: T16, rHuman Erythropoietin R/Fc Chimera, CF (R&D Systems Cat#963-ER) (human, UniProt P19235 25-250); assay: ECL (MSD multi-spot), antigen on plate, Fab 10 nM
T16 construct: Bought Fc chimera; also called EPO R/Fc; Epo R; not shown: Fc of the bought chimera
T16 sequence: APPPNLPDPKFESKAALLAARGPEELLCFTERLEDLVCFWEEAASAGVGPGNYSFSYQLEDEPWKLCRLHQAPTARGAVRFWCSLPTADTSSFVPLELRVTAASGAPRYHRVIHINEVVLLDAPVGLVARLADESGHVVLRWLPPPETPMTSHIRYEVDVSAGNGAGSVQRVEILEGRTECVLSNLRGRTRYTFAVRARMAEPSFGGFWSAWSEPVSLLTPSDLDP

[17] = molecular target: T17, rHuman P-Cadherin/Fc Chimera, CF (R&D Systems Cat#861-PC) (human, UniProt P22223 108-654); assay: ECL (MSD multi-spot), antigen on plate, Fab 10 nM
T17 construct: Bought Fc chimera; also called CDH3; not shown: Fc of the bought chimera

[18] = molecular target: T18, Recombinant Human DLL4 (R&D Systems Cat#1506-D4/CF) (human, UniProt Q9NR61 27-524); assay: ECL (MSD multi-spot), antigen on plate, Fab 10 nM
T18 construct: Bought recombinant protein; also called delta-like protein 4

[19] = molecular target: T19, rHuman HGF R/c-MET/Fc Chimera, CF (R&D Systems Cat#358-MT/CF) (human, UniProt P08581 25-932); assay: ECL (MSD multi-spot), antigen on plate, Fab 10 nM
T19 construct: Bought Fc chimera; also called HGF R/Fc; not shown: Fc of the bought chimera
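Also: blank spot per well as comparator with Hit at signal to blank ratio of 4 or more.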

B1: Fab VH1-8_IGHD2-2*01_IGHJ6*01 & L12_IGKJ1*01 (Fab, V domains shown)
VH: QVQLVQSGAEVKKPGASVKVSCKASGYTFTSYDINWVRQATGQGLEWMGWMNPNSGNTGYAQKFQGRVTMTRNTSISTAYMELSSLRSEDTAVYYCARGGYCSSTSCYADYYYYYGMDVWGQGTTVTVSS
VL: not shown
ECL signal [1]: 573 ECL signal
ECL signal [2]: 525 ECL signal
ECL signal [3]: 706 ECL signal
ECL signal [4]: 561 ECL signal
ECL signal [5]: 556 ECL signal

B2: Fab VH5-51_IGHD5-18*01>3_IGHJ4*01_G100R & V3-4_IGLJ1*01 (Fab, V domains shown)
VH: EVQLVQSGAEVKKPGESLKISCKGSGYSFTSYWIGWVRQMPGKGLEWMGIIYPGDSDTRYSPSFQGQVTISADKSISTAYLQWSSLKASDTAMYYCARRRYSYGYDYFDYWGQGTLVTVSS
VL: QTVVTQEPSFSVSPGGTVTLTCGLSSGSVSTSYYPSWYQQTPGQAPRTLIYSTNTRSSGVPDRFSGSILGNKAALTITGAQADDESDYYCVLYMGSGISYVFGTGTKVTVL
notes: It was expressed as a Fab: CH1 with tags from Plasmid A and lambda CL from Plasmid E; also called Fab No. 23
ECL signal [6]: 1200 ECL signal
ECL signal [7]: 997 ECL signal
ECL signal [8]: 1540 ECL signal
ECL signal [9]: 1210 ECL signal
ECL signal [10]: 1330 ECL signal

B3: Fab VH1-46_IGHD6-6*01_IGHJ1*01_S102A_S103P_S104F & L6_IGKJ1*01_S31K (Fab, V domains shown)
VH: QVQLVQSGAEVKKPGASVKVSCKASGYTFTSYYMHWVRQAPGQGLEWMGIINPSGGSTSYAQKFQGRVTMTRDTSTSTVYMELSSLRSEDTAVYYCAREEYAPFSAEYFQHWGQGTLVTVSS
VL: EIVLTQSPATLSLSPGERATLSCRASQSVSKYLAWYQQKPGQAPRLLIYDASNRATGIPARFSGSGSGTDFTLTISSLEPEDFAVYYCQQRSNWPPWTFGQGTKVEIKR
notes: Fab
ECL signal [11]: 388 ECL signal
ECL signal [12]: 297 ECL signal
ECL signal [13]: 214 ECL signal
ECL signal [14]: 303 ECL signal
ECL signal [15]: 352 ECL signal
ECL signal [16]: 392 ECL signal
ECL signal [17]: 240 ECL signal
ECL signal [18]: 29800 ECL signal
ECL signal [19]: 271 ECL signal
